The values below come from IntAct's records for PubMed 30126976.

B1: Monocarboxylate transporter 2 (Homo sapiens), O60669 (parent)
chain: MPPMPSAPPVHPPPDGGWGWIVVGAAFISIGFSYAFPKAVTVFFKEIQQIFHTTYSEIAWISSIMLAVMYAGGPVSSVLVNKYGSRPVVIAGGLLCCLGMVLASFSSSVVQLYLTMGFITGLGLAFNLQPALTIIGKYFYRKRPMANGLAMAGSPVFLSSLAPFNQYLFNTFGWKGSFLILGSLLLNACVAGSLMRPLGPNQTTSKSKNKTGKTEDDSSPKKIKTKKSTWEKVNKYLDFSLFKHRGFLIYLSGNVIMFLGFFAPIIFLAPYAKDQGIDEYSAAFLLSVMAFVDMFARPSVGLIANSKYIRPRIQYFFSFAIMFNGVCHLLCPLAQDYTSLVLYAVFFGLGFGSVSSVLFETLMDLVGAPRFSSAVGLVTIVECGPVLLGPPLAGKLVDLTGEYKYMYMSCGAIVVAASVWLLIGNAINYRLLAKERKEENARQKTRESEPLSKSKHSEDVNVKVSNAQSVTSERETNI
B2: Ribosomal protein S6 kinase alpha-1 (Homo sapiens), Q15418 (parent)
chain: MPLAQLKEPWPLMELVPLDPENGQTSGEEAGLQPSKDEGVLKEISITHHVKAGSEKADPSHFELLKVLGQGSFGKVFLVRKVTRPDSGHLYAMKVLKKATLKVRDRVRTKMERDILADVNHPFVVKLHYAFQTEGKLYLILDFLRGGDLFTRLSKEVMFTEEDVKFYLAELALGLDHLHSLGIIYRDLKPENILLDEEGHIKLTDFGLSKEAIDHEKKAYSFCGTVEYMAPEVVNRQGHSHSADWWSYGVLMFEMLTGSLPFQGKDRKETMTLILKAKLGMPQFLSTEAQSLLRALFKRNPANRLGSGPDGAEEIKRHVFYSTIDWNKLYRREIKPPFKPAVAQPDDTFYFDTEFTSRTPKDSPGIPPSAGAHQLFRGFSFVATGLMEDDGKPRAPQAPLHSVVQQLHGKNLVFSDGYVVKETIGVGSYSECKRCVHKATNMEYAVKVIDKSKRDPSEEIEILLRYGQHPNIITLKDVYDDGKHVYLVTELMRGGELLDKILRQKFFSEREASFVLHTIGKTVEYLHSQGVVHRDLKPSNILYVDESGNPECLRICDFGFAKQLRAENGLLMTPCYTANFVAPEVLKRQGYDEGCDIWSLGILLYTMLAGYTPFANGPSDTPEEILTRIGSGKFTLSGGNWNTVSETAKDLVSKMLHVDPHQRLTAKQVLQHPWVTQKDKLPQSQLSHQDLQLVKGAMAATYSALNSSKPTPQLKPIESSILAQRRVRKLPSTTL
B3: Neuroepithelial cell-transforming gene 1 protein (Homo sapiens), Q7Z628 (parent)
chain: MEPELAAQKQPRPRRRSRRASGLSTEGATGPSADTSGSELDGRCSLRRGSSFTFLTPGPNWDFTLKRKRREKDDDVVSLSSLDLKEPSNKRVRPLARVTSLANLISPVRNGAVRRFGQTIQSFTLRGDHRSPASAQKFSSRSTVPTPAKRRSSALWSEMLDITMKESLTTREIRRQEAIYEMSRGEQDLIEDLKLARKAYHDPMLKLSIMSEEELTHIFGDLDSYIPLHEDLLTRIGEATKPDGTVEQIGHILVSWLPRLNAYRGYCSNQLAAKALLDQKKQDPRVQDFLQRCLESPFSRKLDLWSFLDIPRSRLVKYPLLLKEILKHTPKEHPDVQLLEDAILIIQGVLSDINLKKGESECQYYIDKLEYLDEKQRDPRIEASKVLLCHGELRSKSGHKLYIFLFQDILVLTRPVTRNERHSYQVYRQPIPVQELVLEDLQDGDVRMGGSFRGAFSNSEKAKNIFRIRFHDPSPAQSHTLQANDVFHKQQWFNCIRAAIAPFQSAGSPPELQGLPELHEECEGNHPSARKLTAQRRASTVSSVTQVEVDENAYRCGSGMQMAEDSKSLKTHQTQPGIRRARDKALSGGKRKETLV
B4: Peroxiredoxin-5, mitochondrial (Homo sapiens), P30044 (parent)
chain: MGLAGVCALRRSAGYILVGGAGGQSAAAAARRYSEGEWASGGVRSFSRAAAAMAPIKVGDAIPAVEVFEGEPGNKVNLAELFKGKKGVLFGVPGAFTPGCSKTHLPGFVEQAEALKAKGVQVVACLSVNDAFVTGEWGRAHKAEGKVRLLADPTGAFGKETDLLLDDSLVSIFGNRRLKRFSMVVQDGIVKALNVEPDGTGLTCSLAPNIISQL
B5: Plasma membrane calcium-transporting ATPase 2 (Homo sapiens), Q01814 (parent)
chain: MGDMTNSDFYSKNQRNESSHGGEFGCTMEELRSLMELRGTEAVVKIKETYGDTEAICRRLKTSPVEGLPGTAPDLEKRKQIFGQNFIPPKKPKTFLQLVWEALQDVTLIILEIAAIISLGLSFYHPPGEGNEGCATAQGGAEDEGEAEAGWIEGAAILLSVICVVLVTAFNDWSKEKQFRGLQSRIEQEQKFTVVRAGQVVQIPVAEIVVGDIAQVKYGDLLPADGLFIQGNDLKIDESSLTGESDQVRKSVDKDPMLLSGTHVMEGSGRMLVTAVGVNSQTGIIFTLLGAGGEEEEKKDKKGVKKGDGLQLPAADGAAASNAADSANASLVNGKMQDGNVDASQSKAKQQDGAAAMEMQPLKSAEGGDADDRKKASMHKKEKSVLQGKLTKLAVQIGKAGLVMSAITVIILVLYFTVDTFVVNKKPWLPECTPVYVQYFVKFFIIGVTVLVVAVPEGLPLAVTISLAYSVKKMMKDNNLVRHLDACETMGNATAICSDKTGTLTTNRMTVVQAYVGDVHYKEIPDPSSINTKTMELLINAIAINSAYTTKILPPEKEGALPRQVGNKTECGLLGFVLDLKQDYEPVRSQMPEEKLYKVYTFNSVRKSMSTVIKLPDESFRMYSKGASEIVLKKCCKILNGAGEPRVFRPRDRDEMVKKVIEPMACDGLRTICVAYRDFPSSPEPDWDNENDILNELTCICVVGIEDPVRPEVPEAIRKCQRAGITVRMVTGDNINTARAIAIKCGIIHPGEDFLCLEGKEFNRRIRNEKGEIEQERIDKIWPKLRVLARSSPTDKHTLVKGIIDSTHTEQRQVVAVTGDGTNDGPALKKADVGFAMGIAGTDVAKEASDIILTDDNFSSIVKAVMWGRNVYDSISKFLQFQLTVNVVAVIVAFTGACITQDSPLKAVQMLWVNLIMDTFASLALATEPPTETLLLRKPYGRNKPLISRTMMKNILGHAVYQLALIFTLLFVGEKMFQIDSGRNAPLHSPPSEHYTIIFNTFVMMQLFNEINARKIHGERNVFDGIFRNPIFCTIVLGTFAIQIVIVQFGGKPFSCSPLQLDQWMWCIFIGLGELVWGQVIATIPTSRLKFLKEAGRLTQKEEIPEEELNEDVEEIDHAERELRRGQILWFRGLNRIQTQIRVVKAFRSSLYEGLEKPESRTSIHNFMAHPEFRIEDSQPHIPLIDDTDLEEDAALKQNSSPPSSLNKNNSAIDSGINLTTDTSKSATSSSPGSPIHSLETSL

The variants in one assay derive from B1. Conditions: with scrib_human SCRIB.
Target sequence in this assay (Q14160 whole entry): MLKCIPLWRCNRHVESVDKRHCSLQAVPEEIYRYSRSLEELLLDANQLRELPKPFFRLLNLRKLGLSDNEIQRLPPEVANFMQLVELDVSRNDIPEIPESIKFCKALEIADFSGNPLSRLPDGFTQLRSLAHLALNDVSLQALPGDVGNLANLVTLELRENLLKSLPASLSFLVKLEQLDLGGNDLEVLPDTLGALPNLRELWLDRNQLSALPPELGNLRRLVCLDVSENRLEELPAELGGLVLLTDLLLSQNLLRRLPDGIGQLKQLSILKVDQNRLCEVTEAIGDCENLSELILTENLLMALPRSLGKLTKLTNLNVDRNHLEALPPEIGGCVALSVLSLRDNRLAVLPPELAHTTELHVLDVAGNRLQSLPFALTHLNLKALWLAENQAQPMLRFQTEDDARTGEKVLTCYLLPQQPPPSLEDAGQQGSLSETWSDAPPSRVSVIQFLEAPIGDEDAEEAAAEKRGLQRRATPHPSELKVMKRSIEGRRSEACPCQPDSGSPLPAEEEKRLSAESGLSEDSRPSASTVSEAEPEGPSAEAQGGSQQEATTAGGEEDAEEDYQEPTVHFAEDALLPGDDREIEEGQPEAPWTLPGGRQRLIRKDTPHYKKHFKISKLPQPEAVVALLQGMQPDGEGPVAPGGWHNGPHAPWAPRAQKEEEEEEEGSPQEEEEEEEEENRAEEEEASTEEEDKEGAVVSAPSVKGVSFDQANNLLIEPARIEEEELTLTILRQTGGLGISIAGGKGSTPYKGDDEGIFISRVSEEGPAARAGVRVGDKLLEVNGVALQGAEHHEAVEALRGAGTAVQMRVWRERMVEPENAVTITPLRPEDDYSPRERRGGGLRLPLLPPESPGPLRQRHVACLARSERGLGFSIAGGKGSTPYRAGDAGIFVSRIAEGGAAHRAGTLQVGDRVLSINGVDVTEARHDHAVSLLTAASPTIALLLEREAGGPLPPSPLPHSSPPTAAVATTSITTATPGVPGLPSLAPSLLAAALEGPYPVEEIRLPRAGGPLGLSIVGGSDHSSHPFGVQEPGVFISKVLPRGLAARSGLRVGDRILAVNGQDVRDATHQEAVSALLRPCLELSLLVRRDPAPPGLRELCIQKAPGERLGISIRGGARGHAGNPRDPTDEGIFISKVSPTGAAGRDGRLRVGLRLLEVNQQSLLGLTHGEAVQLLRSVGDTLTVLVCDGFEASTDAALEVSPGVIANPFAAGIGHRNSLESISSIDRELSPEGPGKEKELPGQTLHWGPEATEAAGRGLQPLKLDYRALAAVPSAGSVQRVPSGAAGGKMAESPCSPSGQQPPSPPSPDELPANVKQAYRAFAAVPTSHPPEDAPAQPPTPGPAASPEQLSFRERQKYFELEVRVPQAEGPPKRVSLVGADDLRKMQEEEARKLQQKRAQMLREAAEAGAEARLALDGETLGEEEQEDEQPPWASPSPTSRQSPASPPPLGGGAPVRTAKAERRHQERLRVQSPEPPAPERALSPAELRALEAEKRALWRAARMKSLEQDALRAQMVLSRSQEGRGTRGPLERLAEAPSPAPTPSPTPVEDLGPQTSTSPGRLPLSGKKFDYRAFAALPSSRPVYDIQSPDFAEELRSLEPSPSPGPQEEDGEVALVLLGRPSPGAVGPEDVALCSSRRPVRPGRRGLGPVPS
S472E: the “effect of a mutation on the interaction” value is reported as “decreasing interaction strength”.

The variants in another assay derive from B2. Conditions: with scrib_human SCRIB.
Target sequence in this assay (Q14160 whole entry): as above
With S732E, the “effect of a mutation on the interaction” value is reported as “increasing interaction strength”.
S732E;T734E: the “effect of a mutation on the interaction” value was “increasing interaction strength”.

In another assay the parent is B3. The conditions noted are these: with dlg1_human DLG1, Q12959.
Sequence of dlg1_human DLG1, Q12959 (Q12959 whole entry, looked up): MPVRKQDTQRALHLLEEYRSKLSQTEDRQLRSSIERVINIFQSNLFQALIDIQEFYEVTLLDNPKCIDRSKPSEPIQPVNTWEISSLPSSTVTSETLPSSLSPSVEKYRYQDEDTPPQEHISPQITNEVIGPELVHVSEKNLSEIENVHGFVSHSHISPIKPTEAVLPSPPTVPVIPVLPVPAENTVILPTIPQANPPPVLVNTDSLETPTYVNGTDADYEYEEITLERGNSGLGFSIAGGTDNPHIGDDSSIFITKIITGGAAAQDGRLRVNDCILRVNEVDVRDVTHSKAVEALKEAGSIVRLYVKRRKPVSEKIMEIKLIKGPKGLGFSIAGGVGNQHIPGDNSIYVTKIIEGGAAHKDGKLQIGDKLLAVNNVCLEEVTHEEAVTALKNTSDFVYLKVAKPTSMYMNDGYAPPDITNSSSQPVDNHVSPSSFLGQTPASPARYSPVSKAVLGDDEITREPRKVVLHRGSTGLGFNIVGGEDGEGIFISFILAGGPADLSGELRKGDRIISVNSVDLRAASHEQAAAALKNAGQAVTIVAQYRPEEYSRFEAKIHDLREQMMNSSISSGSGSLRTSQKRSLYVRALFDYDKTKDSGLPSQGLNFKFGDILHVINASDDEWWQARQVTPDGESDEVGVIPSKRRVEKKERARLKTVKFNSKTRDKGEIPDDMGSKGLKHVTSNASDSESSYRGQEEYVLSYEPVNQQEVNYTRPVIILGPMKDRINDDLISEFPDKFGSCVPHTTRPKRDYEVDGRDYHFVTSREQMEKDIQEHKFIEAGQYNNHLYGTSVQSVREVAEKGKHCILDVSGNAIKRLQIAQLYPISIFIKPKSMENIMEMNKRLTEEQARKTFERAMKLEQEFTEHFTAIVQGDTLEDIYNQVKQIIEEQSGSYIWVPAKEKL
T594E: the “effect of a mutation on the interaction” value was “disrupting interaction strength”.

Variants of B4 are the subject of another assay. The conditions noted are these: with scrib_human SCRIB.
Target sequence in this assay (Q14160 whole entry): as the sequence (Q14160 whole entry) above
Consider S212E, for which the “effect of a mutation on the interaction” value is given as “with no effect”.

The next assay covers variants of B5. Conditions: with scrib_human SCRIB.
Target sequence in this assay (Q14160 whole entry): as above
As to T1241E, the “effect of a mutation on the interaction” value was “decreasing interaction strength”.

The next assay covers variants of B5. The conditions noted are these: with scrib_human SCRIB. This is another data set of the same source.
Target sequence in this assay (Q14160 whole entry): as above
Take S1238E: the “effect of a mutation on the interaction” value is on record as “disrupting interaction strength”.
